# Results reported in patent US20140271629A1 (Amgen, published 2014).
# T1: huCHRDL-1-DEVD-6xHis (human, UniProt Q9BU40 28-456)
# T1 construct: also called Human CHRDL-1
# T1 sequence: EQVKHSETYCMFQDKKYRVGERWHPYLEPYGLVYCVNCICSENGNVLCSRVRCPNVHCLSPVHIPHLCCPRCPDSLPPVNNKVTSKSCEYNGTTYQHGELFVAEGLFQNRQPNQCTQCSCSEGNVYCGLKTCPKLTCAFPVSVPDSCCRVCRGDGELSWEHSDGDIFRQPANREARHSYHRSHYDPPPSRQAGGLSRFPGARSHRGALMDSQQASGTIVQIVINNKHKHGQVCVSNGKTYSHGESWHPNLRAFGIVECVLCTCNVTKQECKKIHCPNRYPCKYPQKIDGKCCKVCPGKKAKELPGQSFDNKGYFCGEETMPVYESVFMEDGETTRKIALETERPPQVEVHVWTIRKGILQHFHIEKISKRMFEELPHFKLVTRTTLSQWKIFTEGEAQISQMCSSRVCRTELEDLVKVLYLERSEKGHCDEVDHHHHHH
# Experiments:
# [1] = biological target: Human BMP4 (R&D Systems cat#314-BP) (human) (UniProt P12644); assay: cell-based or functional assay
# [2] = biological target: T1, huCHRDL-1-DEVD-6xHis; assay: KinExA, solution equilibrium, huCHRDL-1-coated beads
# Method: Binding of the various anti-CHRDL-1 antibodies to huCHRDL-1-DEVD-6xHis was performed using KinExA technology. The huCHRDL-1 protein was coated onto Reacti-Gel™ 6X (Pierce Biotechnology, Inc., Rockford, Ill.) agarose beads at a concentration of 50 ug protein/mL of beads in 50 mM Na₂CO₃ pH 9.6 for approximately 18 hours at 4° C. The coated beads were then blocked with 1 mg/mL BSA (Sigma-Aldrich, St. Louis, Mo.) in 1 M Tris-HCl, pH 7.5 for 2 hours at 4° C. Antibodies at fixed concentrations were mixed with varying concentrations of huCHRDL-1 in PBS containing 0.1 mg/mL BSA and 0.005% polysorbate 20 (P-20, BIAcore, Inc., Piscataway, N.J.) for at least 12 hours at room temperature. Antibody concentrations were 10 pM, 30 pM, 100 pM and/or 300 pM as appropriate. […] Antibody bound to the beads was quantified using fluorescent DyLight 649-conjugated goat anti-murine IgG (H+L) antibody (Jackson ImmunoResearch, West Grove, Pa.) at 1 ug/mL in Super Block (Pierce Biotechnology, Inc., Rockford, Ill.) for the mouse antibodies, or using AlexaFluor™ 647-conjugated goat anti-human IgG (H+L) at 1 ug/mL for the humanized antibody. […] The dissociation equilibrium constant (KD) can be determined from nonlinear regression analysis of the competition curves using a multiple curve one-site homogeneous binding model provided in the KinExA Pro software (Sapidyne Instruments, Inc., Boise, Id.).
# Chain of Human BMP4 (R&D Systems cat#314-BP) (human) (P12644 293-408 limits assumed): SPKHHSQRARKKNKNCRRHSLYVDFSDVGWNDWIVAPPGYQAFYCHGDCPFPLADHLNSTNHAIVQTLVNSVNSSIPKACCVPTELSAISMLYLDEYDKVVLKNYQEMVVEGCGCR
"RLU mean, BRE-luciferase reporter in MC3T3-E1-BRE-Luc cells stimulated with BMP4 (TSG present) [1] [RLU]","reduction of RLU mean, BRE-luciferase reporter in MC3T3-E1-BRE-Luc cells stimulated with BMP4 (TSG present) [1] [%]",Kd [2] [nM],Molecule
254,55,,muCHRDL-1-DEVD-6xHis (from UniProt Q920C1 23-447)
62,89,,"Recombinant human CHRDL-1 (R&D Systems cat#1808-NR), Glu22-Cys450 with C-terminal 10xHis tag (from UniProt Q9BU40 28-456)"
,,0.142,"huz-LC2G2.2_LC/huz-bmHC2G2.2_eflsIgG1 (antibody, V domains shown, also called huz-2G2.2-A; Huz-2G2.2-A) VH: QVQLVQSGAEVKKPGASVKVSCKASGYTFTSYWMHWVRQAPGQGLERMGNINPSNGGTNYNEKFKSRVTMTVDKSSSTAYMELSSLRSEDTAVYYCARSKNNYVAYYFDYWGQGTLVTVSS VL: DIQMTQSPSSLSASVGDRVTITCRASENIYYSLAWYQQKPGKAPKLLIYNANSLEDGVPSRFSGSGSGTDFTLTISSLQPEDFATYYCKQAYDVPLTFGQGTKLEIKR"
